The source of these data is patent publication US20160251438A1.

Bounds are passed on as bounds.

Assay [1] addresses GARP / TGF-β1 Y336Q complex (human) (UniProt Q14392). In words: flow cytometry on transfected 293T cells, 5 ug/ml; grade of Loss of binding read by footnote 2.
Assay [2] shares this target. In words: FACS titration on transfected 293T; EC50 mutant / EC50 WT.
Assay [3] has the same target. As to the kind of experiment: FACS titration on transfected 293T; EC50 mutant / EC50 WT [cont.) B].
Assay [4] shares this target. In words: flow cytometry titration on transfected 293T cells; grade of Reduced avidity read by footnote 3.

Sequence of GARP / TGF-β1 Y336Q complex (human) (Q14392 20-662, chain 1 of 2): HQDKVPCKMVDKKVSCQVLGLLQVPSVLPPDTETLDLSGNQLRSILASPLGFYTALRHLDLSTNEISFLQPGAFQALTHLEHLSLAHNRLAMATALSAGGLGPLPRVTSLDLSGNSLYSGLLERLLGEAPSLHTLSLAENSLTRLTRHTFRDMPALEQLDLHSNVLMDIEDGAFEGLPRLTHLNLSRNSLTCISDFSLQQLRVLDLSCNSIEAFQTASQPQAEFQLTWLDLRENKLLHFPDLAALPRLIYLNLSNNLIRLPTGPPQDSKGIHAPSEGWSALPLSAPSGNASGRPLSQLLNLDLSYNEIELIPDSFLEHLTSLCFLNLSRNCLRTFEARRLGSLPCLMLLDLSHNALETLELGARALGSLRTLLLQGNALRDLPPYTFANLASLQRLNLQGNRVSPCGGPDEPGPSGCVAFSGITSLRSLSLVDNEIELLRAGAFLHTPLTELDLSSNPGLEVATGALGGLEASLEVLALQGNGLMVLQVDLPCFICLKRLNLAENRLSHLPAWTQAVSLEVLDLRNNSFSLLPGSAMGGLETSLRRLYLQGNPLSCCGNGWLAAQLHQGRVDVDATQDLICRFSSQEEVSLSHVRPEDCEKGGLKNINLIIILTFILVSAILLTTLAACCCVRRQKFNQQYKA
Sequence of GARP / TGF-β1 Y336Q complex (human) (P01137 30-390 Y336Q, chain 2 of 2, further chain): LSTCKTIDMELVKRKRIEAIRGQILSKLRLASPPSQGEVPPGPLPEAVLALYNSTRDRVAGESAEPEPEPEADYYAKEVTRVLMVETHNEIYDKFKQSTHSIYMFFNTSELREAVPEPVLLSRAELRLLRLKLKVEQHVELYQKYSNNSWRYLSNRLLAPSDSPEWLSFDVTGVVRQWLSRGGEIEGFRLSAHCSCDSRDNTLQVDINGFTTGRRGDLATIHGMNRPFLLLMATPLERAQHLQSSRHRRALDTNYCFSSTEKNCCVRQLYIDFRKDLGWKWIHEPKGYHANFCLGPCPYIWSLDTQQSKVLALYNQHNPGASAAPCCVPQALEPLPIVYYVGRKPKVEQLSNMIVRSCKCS

B1: MHGARP8 (antibody, V domains shown)
VH: QVQLKESGPGLVAPSQSLSITCTVSGFSLTGYGINWVRQPPGKGLEWLGMIWSDGSTDYNSVLTSRLRISKDNSNSQVFLKMNSLQVDDTARYYCARDRNYYDYDGAMDYWGQGTSVTVSS
VL: DIQVTQSSSYLSVSLGDRVTITCKASDHIKNWLAWYQQKPGIAPRLLVSGATSLEAGVPSRFSGSGSGKNFTLSITSLQTEDVATYYCQQYWSTPWTFGGGTTLEIR
Regarding B1, the residual binding on mutant by comparison to WT in assay [1] is more than 50%. Besides, in assay [2], the Ratio of EC50 (mutant / wt) was 0.9.

B2: LHG-10 (antibody, human IgG1, V domains shown)
VH: EVQLVQPGAELRNSGASVKVSCKASGYRFTSYYIDWVRQAPGQGLEWMGRIDPEDGGTKYAQKFQGRVTFTADTSTSTAYVELSSLRSEDTAVYYCARNEWETVVVGDLMYEYEYWGQGTQVTVSS
VL: DIQMTQSPTSLSASLGDRVTITCQASQSISSYLAWYQQKPGQAPKLLIYGASRLQTGVPSRFSGSGSGTSFTLTISGLEAEDAGTYYCQQYDSLPVTFGQGTKVELK
Regarding B2, the residual binding on mutant by comparison to WT in assay [1] is more than 50%. The Ratio of EC50 (mutant / wt) in assay [3] is 1.1. Besides, in assay [4], the ratio of EC50 (mutant vs WT) is less than 2.
